Results published in article PMC3473065.
Substitutions are numbered along the chain they refer to.

B1: wild-type Ncd dimeric motor protein (MGSM-H293-K700) (domain or fragment)
chain: MGSMHAALSTEVVHLRQRTEELLRCNEQQAAELETCKEQLFQSNMERKELHNTVMDLRGNIRVFCRIRPPLESEENRMCCTWTYHDESTVELQSIDAQAKSKMGQQIFSFDQVFHPLSSQSDIFEMVSPLIQSALDGYNICIFAYGQTGSGKTYTMDGVPESVGVIPRTVDLLFDSIRGYRNLGWEYEIKATFLEIYNEVLYDLLSNEQKDMEIRMAKNNKNDIYVSNITEETVLDPNHLRHLMHTAKMNRATASTAGNERSSRSHAVTKLELIGRHAEKQEISVGSINLVDLAGSESPKTSTRMTETKNINRSLSELTNVILALLQKQDHIPYRNSKLTHLLMPSLGGNSKTLMFINVSPFQDCFQESVKSLRFAASVNSCKMTKAKRNRYLNNSVANSSTQSNNSGSFDK
B2: NcdY485K dimeric motor protein (MGSM-H293-K700) (domain or fragment)
chain: B1 chain with Y197K
B3: NcdY485N dimeric motor protein (MGSM-H293-K700) (domain or fragment)
chain: B1 chain with Y197N
B4: NcdY485E dimeric motor protein (MGSM-H293-K700) (domain or fragment)
chain: B1 chain with Y197E

Target: microtubules
Experiment: not given

K (M,MT) of steady-state ATPase, 0.5 µM motor + 0-25 µM microtubules	Binder
17 µM	B1
1.6 µM	B2

Target: microtubules
Experiment: co-sedimentation; microtubule pelleting assay: 0.7 µM motor with 2 µM microtubules and 0.1 mM Mg·ADP in HEM100 (10 mM HEPES pH 7.2, 1 mM EGTA, 1 mM MgCl2, 100 mM NaCl); centrifugation, SDS-PAGE; corrected for motor that pelleted without microtubules

MT binding with ADP (fraction bound) (fraction bound)	Binder
0.2	B1
0.6	B2
0.37	B3
0.29	B4
